Data published in patent publication US20140120109A1 (Regeneron, published 2014).
Where a chain is given by its changes, count along the chain named. One block for each binder: values may come before it.

Assays:
[1] = biological target: T1, cynomolgus monkey TL1A, soluble, CHO-expressed, residues 72-251 of SEQ ID NO:248 with N-terminal His6-tag (cynomolgus monkey (Macaca fascicularis), UniProt O95150 72-251 (human entry)); experiment: ELISA, blocks MfTL1A (50 pM) binding hDcR3-Fc
T1 construct: also called MfTL1A; MfTL1A (CHO)
T1 chain: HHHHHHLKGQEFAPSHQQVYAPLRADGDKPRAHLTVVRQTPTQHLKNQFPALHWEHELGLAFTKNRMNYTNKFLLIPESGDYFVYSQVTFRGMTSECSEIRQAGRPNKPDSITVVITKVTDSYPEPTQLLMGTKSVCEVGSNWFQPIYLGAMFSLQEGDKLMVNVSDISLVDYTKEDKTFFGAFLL
Experimental: (§1) The ability of antibodies to block human TL1A binding to its cognate receptors, the DR3 and DcR3 receptors, was measured using a competition sandwich ELISA. In addition, blocking of a human TL1A variant FHM (human TL1A Q167R) and the cynomolgus monkey (Macaca fascicularis) TL1A (MfTL1A) protein binding to the human DR3 or DcR3 receptors was measured in the same manner. Constant amounts of biotinylated human TL1A or FHM (both expressed with a 6-His tag in CHO cells) or biotinylated MfTL1A (expressed in CHO cells) were separately titrated with varying amounts of antibodies. The antibody-protein complexes were incubated in solution (1 hr, 25° C.) and then transferred to microtiter plates coated with human DR3 (hDR3) or human DcR3 (hDcR3) expressed as human IgG1 Fc fusion proteins. After one hour at 25° C. the wells were washed, and bound human or monkey TL1A was detected with streptavidin conjugated with horseradish peroxidase (HRP). Wells were developed with a TMB solution to produce a colorimetric reaction and quenched with aqueous sulfuric acid before reading absorbance at 450 nm on a Perkin-Elmer Victor X5 plate reader. A sigmoidal dose-response curve was fit to the data using the Prism™ data analysis package. […] Both fully human anti-hTL1A mAbs and comparator antibodies, i.e., control mAb1 (an anti-hTL1A antibody with heavy and light chain variable domains having the amino acid sequences corresponding to SEQ ID NOS:21 and 27, respectively, of US 2009/0280116) and control mAb3 (an anti-hTL1A antibody with heavy and light chain variable domains having the amino acid sequences corresponding to SEQ ID NOS:57 and 48, respectively, of US 2009/0280116), were included in the study. NB: No binding under the conditions tested; NT: Not tested. Concentrations of biotinylated soluble ligands: (1) 150 pM; (2) 500 pM; (3) 10 pM; and (4) 50 pM.

[2] = biological target: T1, cynomolgus monkey TL1A, soluble, …; experiment: ELISA, blocks MfTL1A (500 pM) binding hDR3-Fc
Experimental: as §1

[3] = biological target: T2, cynomolgus monkey TL1A, soluble, E. coli-expressed, residues 72-251 of SEQ ID NO:248 (cynomolgus monkey (Macaca fascicularis), UniProt O95150 72-251 (human entry)); experiment: SPR 25C, mAb captured
T2 construct: with or without N-terminal Met; also called MfTL1A (E. Coli)
T2 chain: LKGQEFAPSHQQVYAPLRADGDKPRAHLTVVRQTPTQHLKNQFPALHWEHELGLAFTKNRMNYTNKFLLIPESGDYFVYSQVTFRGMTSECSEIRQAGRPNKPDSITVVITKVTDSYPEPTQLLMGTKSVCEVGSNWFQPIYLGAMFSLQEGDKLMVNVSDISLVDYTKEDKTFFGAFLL
Experimental: (§2) Measurements were conducted on a T100 BIACORE™ instrument. […] Kinetic association (kₐ) and dissociation (kd) rate constants were determined by fitting the data to a 1:1 binding model using BIAevaluation 4.1 curve fitting software (BIAcore Life Sciences). Molar concentrations of TL1A/Fhm used in the data fitting assumed a monomeric state for TL1A in solution. Binding dissociation equilibrium constants (KD) and dissociative half-lives (t_{1/2}) were calculated from the kinetic rate constants as: KD (M)=kd/kₐ; and t_{1/2} (min)=[In2/(60*kd)].

[4] = biological target: T3, Fhm, hTL1A(Q167R), soluble, E. coli-expressed, residues 72-251 of SEQ ID NO:246 (human, UniProt O95150 72-251); experiment: SPR 25C, mAb captured
T3 construct: with or without N-terminal Met
T3 chain: T2 chain with L39F, V78I, Q96R
Experimental: as §2

[5] = biological target: T2, cynomolgus monkey TL1A, soluble, E. …; experiment: SPR 37C, mAb captured
Experimental: as §2

[6] = biological target: T4, human TL1A, soluble, CHO-expressed, residues 72-251 of SEQ ID NO:244 with N-terminal His6-tag (human, UniProt O95150 72-251); experiment: ELISA, blocks hTL1A (10 pM) binding hDcR3-Fc
T4 construct: also called hTL1A; hTL1A (CHO)
T4 sequence: T1 chain with L45F, V84I
Experimental: as §1

[7] = biological target: T5, Fhm, hTL1A(Q167R), soluble, CHO-expressed, residues 72-251 of SEQ ID NO:246 (human, UniProt O95150 72-251); experiment: ELISA, blocks FHM (150 pM) binding hDR3-Fc; blocking of FHM binding to hDR3
T5 construct: also called Fhm (CHO); FHM (CHO)
T5 chain: T1 chain with L45F, V84I, Q102R
Experimental: as §1

[8] = biological target: T4, human TL1A, soluble, CHO-expressed, …; experiment: ELISA, blocks hTL1A (150 pM) binding hDR3-Fc
Experimental: as §1

[9] = biological target: T6, mouse TL1A, soluble, E. coli-expressed, residues 76-252 of SEQ ID NO:250 (mouse, UniProt Q5UBV8 76-252); experiment: SPR 25C, steady state
T6 construct: with or without N-terminal Met; also called mTL1A (E. Coli)
T6 sequence: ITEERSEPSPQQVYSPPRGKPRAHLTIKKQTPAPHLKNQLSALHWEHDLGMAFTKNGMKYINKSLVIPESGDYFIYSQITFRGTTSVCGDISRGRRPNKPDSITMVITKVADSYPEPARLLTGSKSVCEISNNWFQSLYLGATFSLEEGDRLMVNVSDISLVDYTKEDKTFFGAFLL
Experimental: as §2, with “Binding dissociation equilibrium constants (KD) and dissociative half-lives (t_{1/2}) were calculated from the kinetic rate constants as: KD (M)=kd/kₐ; and t_{1/2} (min)=[In2/(60*kd)].” left out

[10] = biological target: T7, mouse DR3, full-length, expressed on HEK293 NFkB-luciferase reporter cells (mouse); experiment: cell-based or functional assay
T7 chain: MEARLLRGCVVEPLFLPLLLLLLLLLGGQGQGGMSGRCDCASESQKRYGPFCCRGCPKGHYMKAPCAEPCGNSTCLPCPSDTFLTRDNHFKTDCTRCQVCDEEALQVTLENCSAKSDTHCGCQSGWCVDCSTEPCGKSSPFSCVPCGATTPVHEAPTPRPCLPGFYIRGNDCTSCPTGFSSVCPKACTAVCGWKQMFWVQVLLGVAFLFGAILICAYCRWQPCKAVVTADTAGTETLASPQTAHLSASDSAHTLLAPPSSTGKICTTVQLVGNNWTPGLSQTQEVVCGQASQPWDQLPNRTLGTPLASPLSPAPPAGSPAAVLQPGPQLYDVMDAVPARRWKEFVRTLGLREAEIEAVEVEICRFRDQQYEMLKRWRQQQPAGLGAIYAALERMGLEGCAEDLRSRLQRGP

IC50 [1]: 0.009 nM
IC50 [2]: 0.081 nM
Kd [3]: 0.176 nM
t1/2 [3]: 2.87 h
Kd [4]: 0.192 nM
t1/2 [4]: 1.8 h
Kd [5]: 0.218 nM
t1/2 [5]: 1.97 h
IC50 [6]: 0.12 nM
IC50 [7]: 0.102 nM
IC50 [8]: 0.046 nM
binding result [9]: no binding (tested: up to 100 nM)
B1: H2M1804N (antibody, V domains shown)
VH: QVQLHQWGAGLLKPSETLSLTCAVSGVSFSDYHWAWIRQSPGKGLEWIGDINHRGRTNYNPSLKSRVTISLDTSGNPFSLKLTSVTAADTAVYYCARDFPNWVFDSWGQGILVTVSS
VL: EIVLSQSPGTLSLSPGERATLSCRASQSVSSSFLAWYQQYPGQAPRLLIYGASRRATGIPDRFRGSGSGTDFTLTISRLEPEDFAVYYCQQYGSSPLTFGGGTKVENK
notes: chimeric hybridoma antibody: human variable regions, mouse constant regions (mouse Fc)

IC50 [1]: 0.055 nM
IC50 [2]: 0.239 nM
Kd [3]: 1.84 nM
t1/2 [3]: 0.167 h
Kd [4]: 1.08 nM
t1/2 [4]: 0.283 h
Kd [5]: 4.1 nM
t1/2 [5]: 0.05 h
IC50 [6]: 0.396 nM
IC50 [7]: 0.317 nM
IC50 [8]: 0.154 nM
Kd [9]: 171 nM
B2: H2M1818N (antibody, V domains shown)
VH: RLQLVESGGGLVKPGGSLKLSCAASGFTISDYYMSWIRQAPGKGLEWVSYIGGSGSTIYYADSVKGRFTISRDNAKNSLYLQMNSLRAEDTAVYYCAREDADSYYYYGMDVWGQGTTVTVSS
VL: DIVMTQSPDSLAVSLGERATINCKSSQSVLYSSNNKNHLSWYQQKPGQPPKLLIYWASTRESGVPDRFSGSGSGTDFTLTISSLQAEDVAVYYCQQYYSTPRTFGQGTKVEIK
notes: as for B1

EC50 (cells), NFkB-luciferase reporter [10]: 9770 cells
B3: full length rat TL1A expressed on HEK293 cells (ligand)
chain: MAEELGLGFGEAVPVEMLPEGCRHRREARTGLAARSKACLALTCCLLSFPILAGLSTLLMTGQLRIPGKDCMFPTVTEERSAPSAQPVYTPSRDKPKAHLTIMRQTPVPHLKNELAALHWENNLGMAFTKNRMNYTNKFLVIPESGDYFIYSQITFRGTTSECGDISRVRRPKKPDSITVVITKVADSYPEPAHLLTGTKSVCEISSNWFQPIYLGAMFSLEEGDRLMVNVSDISLVDYTKEDKTFFGAFLI

EC50 (cells), NFkB-luciferase reporter [10]: 12400 cells
B4: full length mouse TL1A expressed on HEK293 cells (ligand)
chain: MAEELGLGFGEGVPVEVLPEGCRHRPEARAGLAARSKACLALTCCLLSFPILAGLSTLLMAGQLRVPGKDCMLRAITEERSEPSPQQVYSPPRGKPRAHLTIKKQTPAPHLKNQLSALHWEHDLGMAFTKNGMKYINKSLVIPESGDYFIYSQITFRGTTSVCGDISRGRRPNKPDSITMVITKVADSYPEPARLLTGSKSVCEISNNWFQSLYLGATFSLEEGDRLMVNVSDISLVDYTKEDKTFFGAFLL
